According to patent US20250136674A1 (KYOTO UNIVERSITY, published 2025):

Biological target: T1, purified full-length recombinant mouse USAG-1 (mouse, UniProt Q9CQN4 24-206)
T1 construct: also called purified recombinant mouse USAG-1 protein
T1 sequence (looked up): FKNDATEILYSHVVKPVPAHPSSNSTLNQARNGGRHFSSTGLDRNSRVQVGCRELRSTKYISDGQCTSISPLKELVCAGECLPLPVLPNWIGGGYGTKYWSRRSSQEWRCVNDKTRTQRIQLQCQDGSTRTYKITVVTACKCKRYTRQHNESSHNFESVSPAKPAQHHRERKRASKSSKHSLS
Test: BLI (Octet Red), antibody immobilised, mouse USAG-1 at 10, 30 and 100 nM, global fitting
Protocol: For the antibody obtained in Example 1, affinity (KD values) was determined by using a BLI method based on Octet (registered trademark) Red (manufactured by Pall ForteBio). Specifically, each antibody was immobilized on the biosensor, the purified recombinant mouse USAG-1 protein was added at three different concentrations (10 nM, 30 nM, 100 nM), and binding and dissociation curves were obtained. The affinities were calculated by subjecting the obtained curves to global fitting with an analysis program attached to the Octet device.

B1: mouse anti-USAG-1 neutralizing antibody B48C (antibody, V domains shown)
VH: EVQLQQSGAELVRPGASVKLSCTASGFNIKDDYMHWVKQRPEQGLEWIGWIDPENGDTEYASKFQGKATITADTSSNTAYLQLSSLTSEDTAVYYCITPYYYGSSFSYWYFDVWGTGTTVTVSS
VL: DVLMTQTPLSLPVSLGDQASISCRSSQSIVHSNGNTYLEWYLQKPGQSPKLLIYKVSNRFSGVPDRFSGSGSGTDFTLKISRVEAEDLGVYYCFQGSHVPWTFGGGTKLEIKR
notes: Mouse monoclonal from a hybridoma (USAG-1 KO mouse immunised with rat USAG-1)
- Kd: 3.26 nM
